Results reported in paper PMC4484599.

Target: Sp-1 human recombinant protein (Promega) (Homo sapiens, UniProt P08047 1-785)
Test: EMSA

Sp-1 human recombinant protein (Promega), sequence (P08047 whole entry): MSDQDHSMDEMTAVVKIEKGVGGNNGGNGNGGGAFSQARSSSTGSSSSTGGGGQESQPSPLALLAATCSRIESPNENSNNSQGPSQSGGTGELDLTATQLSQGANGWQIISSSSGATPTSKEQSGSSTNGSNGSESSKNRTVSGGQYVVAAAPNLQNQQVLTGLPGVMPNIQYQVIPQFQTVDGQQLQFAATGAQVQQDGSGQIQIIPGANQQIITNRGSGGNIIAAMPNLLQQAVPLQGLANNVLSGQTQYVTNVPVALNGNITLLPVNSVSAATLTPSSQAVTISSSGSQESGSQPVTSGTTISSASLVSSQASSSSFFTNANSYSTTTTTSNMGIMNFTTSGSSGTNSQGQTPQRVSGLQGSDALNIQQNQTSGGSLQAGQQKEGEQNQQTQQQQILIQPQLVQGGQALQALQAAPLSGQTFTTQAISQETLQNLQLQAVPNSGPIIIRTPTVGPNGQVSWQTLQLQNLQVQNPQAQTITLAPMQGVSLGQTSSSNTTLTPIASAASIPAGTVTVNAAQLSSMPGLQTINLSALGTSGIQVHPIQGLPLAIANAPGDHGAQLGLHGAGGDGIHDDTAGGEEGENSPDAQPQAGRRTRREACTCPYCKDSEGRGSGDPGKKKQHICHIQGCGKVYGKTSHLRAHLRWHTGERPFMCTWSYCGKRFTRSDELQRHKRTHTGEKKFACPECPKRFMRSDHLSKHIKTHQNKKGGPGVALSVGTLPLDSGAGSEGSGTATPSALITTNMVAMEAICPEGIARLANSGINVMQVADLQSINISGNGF

B1: Sp-1 probe (ER alpha promoter) (dsDNA)
DNA 1: TCGTGCGCCCCCGCCCCCTGGCCGTG
DNA 2: CACGGCCAGGGGGCGGGGGCGCACGA
binding result: binds
